Results as given in patent US20210002649.

Target: PD-1 Ligand (PD-L1) (UniProt Q9NZQ7)
Sequence (Q9NZQ7 19-290): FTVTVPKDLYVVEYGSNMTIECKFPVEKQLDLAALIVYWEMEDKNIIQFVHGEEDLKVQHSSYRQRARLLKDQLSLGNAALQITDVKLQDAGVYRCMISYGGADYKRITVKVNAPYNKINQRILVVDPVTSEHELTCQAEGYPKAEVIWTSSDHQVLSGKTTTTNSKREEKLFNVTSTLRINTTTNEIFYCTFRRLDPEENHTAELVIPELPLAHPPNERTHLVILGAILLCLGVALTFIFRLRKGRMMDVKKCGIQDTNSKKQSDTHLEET

WW domain containing E3 ubiquitin protein ligase 1 (WWP1)
PD-L1 K63-linked poly-ubiquitination (gel images): WWP1 triggers PD-L1 K63-linked poly-ubiquitination
PD-L1 ubiquitination (gel images): WWP1 triggers PD-L1 ubiquitination in a catalytic dependent manner
